The results in this text go back to patent publication US20240116985A1 (published 2024).

Starred links: 1 amine or outer side, 2 acyl side, 3 side chain; linkers in the order of their positions; H or OH if unused. Positions of bridges follow the written chain, without caps; N, C: chain ends. Non-standard residues stand in square brackets, D forms with d. Primed or numbered codes have the meaning given here. PyrS2″ = (S)-3-amino-1-((pent-4-en-1-yloxy)carbonyl)pyrrolidine-3-carboxylic acid (stapling residue), C=CCCCOC(=O)N1CC[C@@](N[*:1])(C(=O)[*:2])C1; B5(4) = 2,2-bis(4-pentenyl)glycine = 2-amino-2-(pent-4-en-1-yl)hept-6-enoic acid (stitching residue), C=CCCCC(CCCC=C)(N[*:1])C(=O)[*:2]; TfeGA = (S)-2-amino-3-((carboxymethyl)(2,2,2-trifluoroethyl)amino)propanoic acid, O=C([C@H](CN(CC(=O)[*:3])CC(F)(F)F)N[*:1])[*:2]; B5(3) = 2,2-bis(4-pentenyl)glycine (stitching residue), C=CCCCC(CCCC=C)(N[*:1])C(=O)[*:2]; Phe(2-Cl) = N[C@@H](Cc1ccccc1Cl)C(=O)O; Bta = N[C@@H](Cc1csc2ccccc12)C(=O)O; αAllylPro = C=CC[C@@]1(C(=O)O)CCCN1; tBuAla = CC(C)(C)C[C@H](N)C(=O)O; Leu(ol) = CC(C)C[C@H](N)CO A value given as a limit tells only on which side of the number the result lay.

Experiment in all cases: cell-based or functional assay
One assay addresses T1, B-cat-Halo (UniProt P35222 1-781).
T1 sequence (looked up): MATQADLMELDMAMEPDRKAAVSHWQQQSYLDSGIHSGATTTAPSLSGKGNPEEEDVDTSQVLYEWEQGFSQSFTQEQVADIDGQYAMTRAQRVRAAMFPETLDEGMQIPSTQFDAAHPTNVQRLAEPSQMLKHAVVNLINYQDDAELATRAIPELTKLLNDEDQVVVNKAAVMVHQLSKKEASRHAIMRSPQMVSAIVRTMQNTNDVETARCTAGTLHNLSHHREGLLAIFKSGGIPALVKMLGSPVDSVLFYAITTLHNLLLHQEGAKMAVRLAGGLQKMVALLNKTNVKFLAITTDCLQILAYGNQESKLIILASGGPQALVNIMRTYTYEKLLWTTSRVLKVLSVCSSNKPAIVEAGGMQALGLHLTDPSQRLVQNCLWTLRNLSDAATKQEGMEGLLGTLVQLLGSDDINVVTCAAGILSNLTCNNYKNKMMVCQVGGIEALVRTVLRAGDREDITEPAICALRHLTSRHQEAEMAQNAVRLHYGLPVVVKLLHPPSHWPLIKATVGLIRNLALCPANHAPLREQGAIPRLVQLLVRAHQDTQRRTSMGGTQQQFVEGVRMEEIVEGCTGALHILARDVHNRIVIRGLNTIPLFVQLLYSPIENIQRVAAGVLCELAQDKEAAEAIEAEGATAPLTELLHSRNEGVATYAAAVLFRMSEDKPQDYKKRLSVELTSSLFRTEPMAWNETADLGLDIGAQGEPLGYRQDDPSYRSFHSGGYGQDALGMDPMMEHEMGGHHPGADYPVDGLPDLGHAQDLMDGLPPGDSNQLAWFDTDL

In assay [1] the target is T2, beta-catenin in DLD1 TCF/LEF luciferase reporter cells (UniProt P35222 1-781).
T2 sequence (looked up): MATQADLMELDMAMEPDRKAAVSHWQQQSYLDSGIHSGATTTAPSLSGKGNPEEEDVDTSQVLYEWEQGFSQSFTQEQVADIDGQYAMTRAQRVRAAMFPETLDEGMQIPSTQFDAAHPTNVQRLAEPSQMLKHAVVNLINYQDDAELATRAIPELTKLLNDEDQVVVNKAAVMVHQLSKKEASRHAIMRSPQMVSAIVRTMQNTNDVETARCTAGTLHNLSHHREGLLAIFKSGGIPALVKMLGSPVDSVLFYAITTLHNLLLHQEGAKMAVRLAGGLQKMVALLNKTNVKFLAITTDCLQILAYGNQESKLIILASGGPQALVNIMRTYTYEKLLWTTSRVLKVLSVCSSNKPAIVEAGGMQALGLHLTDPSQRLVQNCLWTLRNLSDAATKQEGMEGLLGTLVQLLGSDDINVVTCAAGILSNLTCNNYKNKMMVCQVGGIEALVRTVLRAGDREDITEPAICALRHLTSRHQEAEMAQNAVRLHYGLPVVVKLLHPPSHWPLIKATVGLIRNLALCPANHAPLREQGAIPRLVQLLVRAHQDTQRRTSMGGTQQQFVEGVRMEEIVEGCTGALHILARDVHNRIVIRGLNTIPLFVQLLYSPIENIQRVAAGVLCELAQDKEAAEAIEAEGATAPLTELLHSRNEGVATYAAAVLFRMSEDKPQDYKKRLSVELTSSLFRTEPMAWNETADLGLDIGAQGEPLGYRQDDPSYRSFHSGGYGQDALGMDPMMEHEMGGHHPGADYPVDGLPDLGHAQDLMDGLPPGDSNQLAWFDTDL

For assay [2], the target named is T3, B-cat-Halo (beta-catenin HaloTag NanoBRET construct expressed in HEK293 cells) (UniProt P35222 1-781).
T3 sequence (looked up): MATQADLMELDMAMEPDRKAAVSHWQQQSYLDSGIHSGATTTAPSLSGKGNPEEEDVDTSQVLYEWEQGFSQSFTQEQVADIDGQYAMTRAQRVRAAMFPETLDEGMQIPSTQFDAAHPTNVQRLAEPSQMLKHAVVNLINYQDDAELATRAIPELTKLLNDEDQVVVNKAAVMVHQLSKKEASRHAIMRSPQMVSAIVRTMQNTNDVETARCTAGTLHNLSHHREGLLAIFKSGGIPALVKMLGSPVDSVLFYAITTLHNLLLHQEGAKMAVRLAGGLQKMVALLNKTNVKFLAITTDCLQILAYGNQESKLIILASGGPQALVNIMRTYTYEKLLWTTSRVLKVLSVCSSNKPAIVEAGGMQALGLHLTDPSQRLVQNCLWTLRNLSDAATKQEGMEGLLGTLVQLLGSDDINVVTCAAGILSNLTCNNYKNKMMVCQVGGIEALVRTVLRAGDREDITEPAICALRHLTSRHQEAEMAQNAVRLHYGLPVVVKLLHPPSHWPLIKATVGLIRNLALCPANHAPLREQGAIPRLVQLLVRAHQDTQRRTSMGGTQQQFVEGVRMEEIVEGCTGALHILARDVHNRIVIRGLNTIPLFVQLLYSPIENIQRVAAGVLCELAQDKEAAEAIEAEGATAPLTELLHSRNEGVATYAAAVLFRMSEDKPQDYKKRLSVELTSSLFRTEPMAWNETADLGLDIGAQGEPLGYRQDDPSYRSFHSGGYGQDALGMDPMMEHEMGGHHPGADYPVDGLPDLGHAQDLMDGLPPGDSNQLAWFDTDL

Consider Ac-[αAllylPro]D[tBuAla][B5(3)]D[TfeGA]AAFF[PyrS2″][Phe(2-Cl)][Bta]S-NH2 (staple 1-4, 4-11) [I-990], for which the “NanoBRET Abs IC50” value with B-cat-Halo was determined as 8.8 µM.

In the case of Ac-[αAllylPro]D[tBuAla][B5(4)]DDAAFN[PyrS2″][Phe(2-Cl)][Bta][Leu(ol)] (staple 1-4, 4-11) [I-1080], the “DLD1 reporter assay Abs IC50” value in assay [1] was found to be 17.2 µM. In addition, the “NanoBRET Abs IC50” value in assay [2] was greater than 20 µM.

For Ac-[αAllylPro]D[tBuAla][B5(3)]D[TfeGA]AAFF[PyrS2″]F[Bta]Q-NH2 (staple 1-4, 4-11) [I-988], the “NanoBRET Abs IC50” value in the assay with B-cat-Halo was determined as 13.9 µM.
